Consider eight molecules from patent EP1876240B1 (MOCHIDA PHARMACEUTICAL CO., LTD., dated 2012).

For test [1], the target named is T1, human GPVI extracellular region-human Fc fusion protein (hGPVI-hFc) (human).
T1 construct: expressed in COS-1, Protein A purified; also called GPVI-HHH-hFc; hGPVIHHH-hFc
Nature of the test: SPR (BIACORE3000) as in Example 5. (In general: In SPR one partner is held on a chip, and binding of the other changes the refractive index at the surface.)

Test [2] has as its target T1, human GPVI extracellular region-human …. The test is described as follows: SPR (BIACORE3000), GPVI-hFc coupled to CM5 chip, antibody 1.25-40 nM, bivalent analyte fit.
Target sequence in this assay (chain, as listed by the source limits assumed): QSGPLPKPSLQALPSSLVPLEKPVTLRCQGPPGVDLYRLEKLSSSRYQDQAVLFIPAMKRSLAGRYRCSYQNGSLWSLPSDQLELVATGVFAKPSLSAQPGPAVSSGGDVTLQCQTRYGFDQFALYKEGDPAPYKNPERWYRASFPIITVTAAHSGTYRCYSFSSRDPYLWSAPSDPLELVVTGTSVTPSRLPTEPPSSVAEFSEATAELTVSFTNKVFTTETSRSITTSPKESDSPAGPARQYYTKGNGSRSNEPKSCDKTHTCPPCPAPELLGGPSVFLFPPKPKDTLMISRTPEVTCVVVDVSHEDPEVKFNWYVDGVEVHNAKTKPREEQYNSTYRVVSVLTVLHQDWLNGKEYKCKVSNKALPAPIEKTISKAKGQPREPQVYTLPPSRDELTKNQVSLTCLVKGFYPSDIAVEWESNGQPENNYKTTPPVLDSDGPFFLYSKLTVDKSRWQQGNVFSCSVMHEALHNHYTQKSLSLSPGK
The target in test [3] is cynomolgus monkey D1D2-human D3 chimeric GPVI-human Fc fusion protein (GPVI-FFH-hFc) (cynomolgus monkey (D1, D2) and human …). The test is described as above.
cynomolgus monkey D1D2-human D3 chimeric GPVI-human Fc fusion protein (GPVI-FFH-hFc) (cynomolgus monkey (D1, D2) and human …), sequence (chain, as listed by the source mutant limits assumed): as the sequence (chain, as listed by the source limits assumed) above, with S2R, S61H, L78P, R166G, V181M, P442S counted along it
The next test deals with T2, GPVI on human platelets (human, UniProt Q9HCN6 21-339).
T2 construct: whole, on cells
T2 sequence (looked up): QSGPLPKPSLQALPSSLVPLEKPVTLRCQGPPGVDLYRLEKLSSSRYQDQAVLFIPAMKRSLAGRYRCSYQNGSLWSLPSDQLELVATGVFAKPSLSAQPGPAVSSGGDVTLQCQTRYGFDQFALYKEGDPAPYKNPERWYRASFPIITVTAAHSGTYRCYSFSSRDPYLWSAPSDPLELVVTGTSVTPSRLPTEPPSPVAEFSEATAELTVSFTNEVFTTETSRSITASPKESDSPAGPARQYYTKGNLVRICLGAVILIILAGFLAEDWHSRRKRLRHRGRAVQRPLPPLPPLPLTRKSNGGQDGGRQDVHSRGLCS
The test is described as follows: homologous competitive binding of [125I]-labeled and non-labeled antibody on washed human platelets (n=3, mean±S.E.).

Test [4] deals with T3, GPVI on cynomolgus monkey platelets (cynomolgus monkey, UniProt A0A2K5VXN2 21-318).
T3 construct: whole, on cells; also called simian platelets
T3 sequence (A0A2K5VXN2 entry or part of it): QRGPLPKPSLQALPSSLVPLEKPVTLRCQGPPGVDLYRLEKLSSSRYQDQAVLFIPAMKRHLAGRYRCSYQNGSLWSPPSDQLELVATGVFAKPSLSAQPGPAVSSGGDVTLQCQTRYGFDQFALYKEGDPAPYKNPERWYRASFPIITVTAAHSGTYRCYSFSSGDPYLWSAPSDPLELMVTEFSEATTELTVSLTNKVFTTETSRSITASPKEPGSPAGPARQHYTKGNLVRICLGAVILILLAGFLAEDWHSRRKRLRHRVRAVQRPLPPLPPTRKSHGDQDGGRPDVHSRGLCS
Nature of the test: homologous competitive binding of [125I]-labeled and non-labeled antibody on washed cynomolgus platelets (n=3, mean±S.E.).

B1: F1232-37-2 (antibody, V domains shown)
VH: VQLQQSGPELVRPGESVKISCKGSGYTFTDYAIHWVKLSHAKSLEWIGVISIYYDDTNYNQKFKGKATMTVDKSSSTAYLELARLTSEDSAIYYCARRRDSSGPYAMDYWGQGTSVTVSS
VL: DIVLTQSPASLAVSLGQRATISCRASESVDSYGNSFMHWYQQKPGQPPKLLIYRASNLESGIPARFSGSGSRTDFTLTINPVEADDVATYYCQQSNEDPYTFGGGTKLEIKR
notes: mouse monoclonal antibody from hybridoma; also called F1232-37-2 (whole antibody)
With B1, in test [1], the “KD (Relative value) against F1232-37-2” value is 1 relative to KD of F1232-37-2. The Kd turned out to be 0.403 nM in test [2] and 1 nM in test [3].

B2: cF1232-37-2/CHO (antibody, V domains shown)
VH: VQLQQSGPELVRPGESVKISCKGSGYTFTDYAIHWVKLSHAKSLEWIGVISIYYDDTNYNQKFKGKATMTVDKSSSTAYLELARLTSEDSAIYYCARRRDSSGPYAMDYWGQGTSVTVSS
VL: DIVLTQSPASLAVSLGQRATISCRASESVDSYGNSFMHWYQQKPGQPPKLLIYRASNLESGIPARFSGSGSRTDFTLTINPVEADDVATYYCQQSNEDPYTFGGGTKLEIKR
notes: also called cF1232-37-2 expressed by CHO cells
In the case of B2, the Kd amounted to 17 nM with GPVI on human platelets and 20 nM in test [4].

B3: F1232-7-1 (antibody, V domains shown)
VH: VQLQQSGPELVRPGESVKISCKGSGYTFTDYAIHWVKLSHAKSLEWIGVISIYYDDTNYNQKFKGKATMTVDKSSSTAYMELARLTSEDSAIYYCARRRDSSGPYAMDYWGQGTSVTVSS
VL: DIVLTQSPASLAVSLGQRATISCRASESVDSYGNSFMHWYQQKPGQPPKLLIYRASNLESGIPARFSGSGSRTDFTLTINPVEADDVATYYCQQSNEDPYTFGGGTKLEIKR
notes: mouse monoclonal antibody from hybridoma
The molecule B3 displayed a Kd in test [3] of 343 nM.

B4: F1232-24-1 (antibody, V domains shown)
VH: VQLQQSGAELVRPGVSVKISCKGSGYTFTDYAMHWVKQSHAKSLEWIGVISTYYGDASYNQKFKGKATMTVDKSSSTAYMELARLTSEDSAIYYCARSYDYDPWFAYWGQGTLVTVSA
VL: DIVLTQSPASLAVSLGQRATISCRASESVDNYGISFMHWYQQKPGQPPKLLIYRASNLESGIPARFSGSGSRTDFTLTINPVETDDVATYYCQQSNKDPLTFGAGTKLELKR
notes: as for B3
Consider B4, for which the Kd in test [2] stood at 0.25 nM; in test [3], 0.71 nM.

B5: F1232-18-3 (antibody, V domains shown)
VH: VMLVESGGGLVKPGGSLKLSCAASGFTFSSYAMSWVRQTPEKRLEWVATISSGGSYTYYPDSVKGRFTISRDNAKNTLYLQMSSLRSADTAMYYCARDYGYFDYWGQGTTLTVSS
VL: DIVLTQSPASLAVSLGQRATISCRASESVDNYGISFMHWYQQKPGQPPKLLFYRASNLESGIPARFSGSGSRTDFTLTINPVETDDVATYYCQQSNTDPRTFGGGTKLEIKR
notes: as for B3
As for B5, the Kd stood at 1.65 nM in test [2] and 365 nM in test [3].

B6: F1249-3-2 (antibody, V domains shown)
VH: EVQLVESGGGLVKPGGSLKLSCAASGFTFSSYGMSWVRQTPDKRLEWVATISSGGSYTYYSDSVKGRFTISRDNAKNNLYLQLSSLKSQDTAIYYCARDSGYFDYWGQGTTLTVSS
VL: NIVLTQSPASLAVSLGQRATISCRASESVDSYGNSFMHWYQQKPGQPPKLLIYLASNLESGVPARFSGSGSRTDFTLTIDPVEADDAATYYCQQNNEDPRTFGGGTKLEIKR
Take B6: the “KD (Relative value) against F1232-37-2” value in test [1] was 1.59 relative to KD of F1232-37-2.

B7: F1201-18 (antibody, V domains shown)
VH: VQLVESGGGLVKPGGSLKLSCAASGFTFSSYAMSWVRQTPEKRLEWVAIISSGGSYTYYPDSVKGRFTISRDNAKNTLYLHMSSLRSEDTAMYYCARQGGGYFDYWGQGTTLTVSS
VL: DIVLTQSPASLAVSLGQRATISCRASESVDSYGNSFMHWYQQKPGQPPKLLIYRASNVESGIPARFSGSGSRTDFTLTINPVEADDVATYYCQQSNEDPPTFGAGTKLELKR
notes: as for B3
Molecule B7 came in with a Kd in test [2] of 1.16 nM.

B8: F1232-17-1 (antibody, V domains shown)
VH: VQLVESGGDLVKPGGSLKLSCAASGFTFSSYGMSWVRQTPDKRLEWVATISSGGSYTYYPDNVKGRFTISRDNAKNTLYLQMSSLNSEDTAMYYCARQVYYFGSCDYWGQGTTLTVSS
VL: DIVLTQSPASLAVSLGQRATISCRASESVDNYGISFMHWYQQKPGQPPKLLIYRASNLESGIPARFSGSGSRTDFTLTINPVETDDVATYYCQQSNKDPWTFGGGTKLEIKR
notes: as for B3
Regarding B8, the Kd in test [2] came out at 0.522 nM; in test [3] it was 0.177 nM.
